Numbering of substitutions follows the chain as printed. Values belong to the binder of their own block, whether it stands above or below them.
What was measured:
human C2 A470S = target: T1, human C2 A470S (human, UniProt P06681 21-752); assay: SPR; KD relative to WT C2;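 further: biacore SPR at 37 °C, anti-C2 mAbs captured on an anti-human IgG chip, alanine or serine C2 surface mutants tested, KD from 1:1 fit compared with wild-type C2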
T1 sequence: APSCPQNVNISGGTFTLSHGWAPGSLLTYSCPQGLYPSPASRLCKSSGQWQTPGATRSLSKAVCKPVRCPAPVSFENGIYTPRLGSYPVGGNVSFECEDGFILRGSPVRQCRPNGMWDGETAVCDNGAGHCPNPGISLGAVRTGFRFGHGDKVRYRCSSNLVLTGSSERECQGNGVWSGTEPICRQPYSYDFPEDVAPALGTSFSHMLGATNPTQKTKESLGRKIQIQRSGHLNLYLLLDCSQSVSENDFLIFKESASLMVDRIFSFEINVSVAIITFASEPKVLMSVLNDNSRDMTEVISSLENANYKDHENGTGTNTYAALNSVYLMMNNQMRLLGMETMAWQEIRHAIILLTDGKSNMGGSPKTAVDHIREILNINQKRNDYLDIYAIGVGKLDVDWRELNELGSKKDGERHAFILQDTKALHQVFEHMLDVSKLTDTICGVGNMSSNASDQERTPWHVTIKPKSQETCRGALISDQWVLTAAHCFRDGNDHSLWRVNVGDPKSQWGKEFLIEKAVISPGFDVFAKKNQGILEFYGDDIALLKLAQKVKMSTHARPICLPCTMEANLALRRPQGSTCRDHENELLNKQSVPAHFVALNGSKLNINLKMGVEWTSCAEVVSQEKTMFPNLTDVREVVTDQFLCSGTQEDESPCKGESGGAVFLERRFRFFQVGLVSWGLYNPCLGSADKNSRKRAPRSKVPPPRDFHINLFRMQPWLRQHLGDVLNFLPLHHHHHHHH

human C2 L439A = target: T2, human C2 L439A (human, UniProt P06681 21-752); assay: SPR; KD relative to WT C2;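 further: biacore SPR at 37 °C, anti-C2 mAbs captured on an anti-human IgG chip, alanine or serine C2 surface mutants tested, KD from 1:1 fit compared with wild-type C2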
T2 sequence: T1 sequence with L419A, S450A

human C2 I272A = target: T3, human C2 I272A (human, UniProt P06681 21-752); assay: SPR; KD relative to WT C2;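 further: biacore SPR at 37 °C, anti-C2 mAbs captured on an anti-human IgG chip, alanine or serine C2 surface mutants tested, KD from 1:1 fit compared with wild-type C2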
T3 sequence: T1 sequence with I252A, S450A

human complement C2 = target: T4, human complement C2 (human, UniProt P06681 21-752); assay: SPR, mAb captured, huC2 analyte, pH 6, steady state
T4 construct: Recombinant full-length human C2 with C-terminal 8x His tag, purified from Expi293F supernatant; also called human C2; huC2
T4 sequence: T1 sequence with S450A

Fold diff (human C2 A470S): 1 fold
Fold diff (human C2 L439A): 42 fold
Fold diff (human C2 I272A): 15 fold
B1: RF16-214 (antibody, V domains shown)
VH: EVQLLESGGGLVQPGGSLRLSCAASGFTFSWYQMMWVRQAPGKGLEWVSRIYPSGGGTAYADSVKGRFTISRDNSKNTLYLQMNSLRAEDTAVYYCARDAGYGDNWGQGTLVTVSS
VL: QSALTQPPSVSVSPGQTASITCSGDKLGEKYASWYQQKAGQSPVMVIYQDRKRPSGIPERFSGSNSGNTATLTISGTQAMDEADYYCQAWDTRAVVFGGGTKLTVLG

Kd (human complement C2): ~95 nM
B2: RF16-226 (antibody)
heavy: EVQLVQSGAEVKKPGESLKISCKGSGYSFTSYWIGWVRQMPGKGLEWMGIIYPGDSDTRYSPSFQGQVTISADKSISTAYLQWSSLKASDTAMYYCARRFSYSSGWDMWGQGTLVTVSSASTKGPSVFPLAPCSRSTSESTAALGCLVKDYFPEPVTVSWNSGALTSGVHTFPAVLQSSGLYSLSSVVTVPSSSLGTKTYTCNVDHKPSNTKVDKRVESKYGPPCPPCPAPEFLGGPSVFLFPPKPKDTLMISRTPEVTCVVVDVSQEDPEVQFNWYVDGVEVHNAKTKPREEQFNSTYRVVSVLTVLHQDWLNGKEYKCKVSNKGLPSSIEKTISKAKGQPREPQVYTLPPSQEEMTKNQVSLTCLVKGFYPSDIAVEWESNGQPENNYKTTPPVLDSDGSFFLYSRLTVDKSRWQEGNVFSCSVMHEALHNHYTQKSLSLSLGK
light: SYELTQPPSVSVSPGQTARITCSGDALTSKYVAWYQQKSGLAPLLVIYEDTRRPSGIPAKFSGSSSGSVATLTISGAHGDDEADYYCYSTDASGHQRVFGGGTKLTVLSQPKAAPSVTLFPPSSEELQANKATLVCLISDFYPGAVTVAWKADGSPVKAGVETTKPSKQSNNKYAASSYLSLTPEQWKSHRSYSCQVTHEGSTVEKTVAPTECS

Reference: patent US20220332804A1 (CSL INNOVATION, published 2022)
